These are literature values, as cited in patent US20070212358A1, “Compositions and Methods for Effecting Controlled Posterior Vitreous Detachment” (priority 2006, published 2007).

This data set concerns vitreoretinal interface. The note with it: rabbit eyes.

B1: plasmin (protein, UniProt P00747 20-580; P00747 581-810, looked up)
Plasmin heavy chain A: EPLDDYVNTQGASLFSVTKKQLGAGSIEECAAKCEEDEEFTCRAFQYHSKEQQCVIMAENRKSSIIIRMRDVVLFEKKVYLSECKTGNGKNYRGTMSKTKNGITCQKWSSTSPHRPRFSPATHPSEGLEENYCRNPDNDPQGPWCYTTDPEKRYDYCDILECEEECMHCSGENYDGKISKTMSGLECQAWDSQSPHAHGYIPSKFPNKNLKKNYCRNPDRELRPWCFTTDPNKRWELCDIPRCTTPPPSSGPTYQCLKGTGENYRGNVAVTVSGHTCQHWSAQTPHTHNRTPENFPCKNLDENYCRNPDGKRAPWCHTTNSQVRWEYCKIPSCDSSPVSTEQLAPTAPPELTPVVQDCYHGDGQSYRGTSSTTTTGKKCQSWSSMTPHRHQKTPENYPNAGLTMNYCRNPDADKGPWCFTTDPSVRWEYCNLKKCSGTEASVVAPPPVVLLPDVETPSEEDCMFGNGKGYRGKRATTVTGTPCQDWAAQEPHRHSIFTPETNPRAGLEKNYCRNPDGDVGGPWCYTTNPRKLYDYCDVPQCAAPSFDCGKPQVEPKKCPGR
Plasmin light chain B: VVGGCVAHPHSWPWQVSLRTRFGMHFCGGTLISPEWVLTAAHCLEKSPRPSSYKVILGAHQEVNLEPHVQEIEVSRLFLEPTRKDIALLKLSSPAVITDKVIPACLPSPNYVVADRTECFITGWGETQGTFGAGLLKEAQLPVIENKVCNRYEFLNGRVQSTELCAGHLAGGTDSCQGDSGGPLVCFEKDKYILQGVTSWGLGCARPNKPGVYVRVSRFVTWIEGVMRNN
modifications: Plasmin
B1: for the setting “plasmin treatment”, the “posterior vitreous detachment (PVD) in eyes treated with plasmin” value is “some areas of PVD”. Moreover, the “detachment of the vitreous after plasmin treatment and vitrectomy” value (plasmin treatment with subsequent vitrectomy) was “substantially detached”.
